Data: patent publication US20110318377A1

Molecular target: Tat/FLAG (wild type HIV-1 Tat with FLAG tag, expressed in cells) (HIV-1)
Test: cell-based or functional assay

“endogenous Set9 (in Jurkat A2, HEK293 and HeLa cells) (from UniProt Q8WTS6 1-366)” was tested. Which decrease in Tat transactivation of the HIV LTR (luciferase) in HeLa cells after Set9 siRNA did it give?
The decrease in Tat transactivation of the HIV LTR (luciferase) in HeLa cells after Set9 siRNA was 50 percent.
